According to patent US20210138066A1, “REMOTE-CONTROLLED IMAGE-GUIDED DRUG DELIVERY VIA ULTRASOUND-MODULATED MOLECULAR DIFFUSION” (California Institute of Technology, priority 2019, published 2021):

Assay: Payloads added to the reservoir: Stokes' diameter
Format: physicochemical

Substance: Adalimumab
- Stokes' Diameter: 10 nm
